Assay results published in the supplement of paper PMC10126150.
± gives the standard deviation of the averaged measurements.

system: ATP; assay: switch fluorescence ratio, 500 uM ATP over buffer (Cy3 cluster intensity, sum of 5 cycles each) (fold (ratio)); higher = stronger signal-on switching upon ATP binding; sequences stand for … in TCGTCGGCAGCGTCAGATGTGTATAAGAGACAGTTTTTTTTTTTTTTTTTTTTTTTTT…TC; conditions: aptamer strand: ATP DNA aptamer (quencher-CACCTGGGGGAGTATTGCGGAGGAAGG + anchor), 100 nM annealed; ATP concentration: 500 uM
Method in brief: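 For every switch-domain sequence, the fluorescence ratio is the mean of per-cluster values, each being summed target-cycle Cy3 intensity over summed buffer-cycle Cy3 intensity. Clusters outside 100-1000 RFU were excluded. On a modified Illumina MiSeq flow-cell, the Cy3-labelled switching-strand clusters were annealed to 100 nM quencher-labelled ATP aptamer, imaged in selection buffer and then after 15 min with 500 uM ATP at 22 °C. Five such cycles were run, with NaOH stripping and re-annealing between them.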
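Further: ATP exposure 15 min at 22 °C before imaging.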

| Sequence | switch fluorescence ratio |
| --- | --- |
| CATGGTAAGT | 0.994 ± 0.053 |
| CATGGTTCGC | 0.985 ± 0.053 |
| CATGGTTCTG | 1.02 ± 0.027 |
| CATGGTTGCG | 0.987 ± 0.022 |
| CATGGTTTTT | 0.9989 ± 0.0082 |
| CATGTAGGTG | 1.06 ± 0.048 |
| CATGTAGTCT | 1.04 ± 0.013 |
| CATGTAGTGC | 1.03 ± 0.089 |
| CATGTCGGTT | 0.991 ± 0.019 |
| CATGTGTTTG | 0.993 ± 0.014 |
| CATGTTGCGA | 1.04 ± 0.023 |
| CATGTTTGCC | 1.02 ± 0.015 |
| CATGTTTGTG | 0.982 ± 0.023 |
| CATGTTTTTT | 0.987 ± 0.024 |
| CATTAAGTCT | 1.02 ± 0.036 |
| CATTAATAGT | 0.98 ± 0.031 |
| CATTACAACA | 1.02 ± 0.059 |
| CATTACGCCG | 1.11 ± 0.042 |
| CATTACGGCG | 0.995 ± 0.043 |
| CATTAGACAT | 0.994 ± 0.026 |
| CATTAGAGGG | 0.988 ± 0.031 |
| CATTAGGGTC | 0.932 ± 0.019 |
| CATTAGTCGT | 0.996 ± 0.013 |
| CATTAGTTGT | 1.02 ± 0.011 |
| CATTAGTTTC | 1 ± 0.028 |

| Sequence | switch fluorescence ratio |
| --- | --- |
| CATTATACAT | 1.01 ± 0.023 |
| CATTATAGAT | 0.997 ± 0.021 |
| CATTATAGCG | 0.991 ± 0.023 |
| CATTATGTGC | 0.981 ± 0.027 |
| CATTATGTTG | 0.969 ± 0.036 |
| CATTATTTAG | 1.01 ± 0.033 |
| CATTATTTGG | 1.003 ± 0.002 |
| CATTATTTTT | 1.01 ± 0.024 |
| CATTCATGTT | 0.985 ± 0.024 |
| CATTCATTGA | 0.998 ± 0.049 |
| CATTCGATGC | 1.265 ± 0.0044 |
| CATTCGCTTT | 1.88 ± 0.036 |
| CATTCGTAGG | 0.965 ± 0.042 |
| CATTCTAAAG | 1.02 ± 0.011 |
| CATTCTACGT | 1.04 ± 0.018 |
| CATTCTATGC | 1.03 ± 0.011 |
| CATTCTCAAT | 1.17 ± 0.056 |
| CATTGAAATT | 0.968 ± 0.032 |
| CATTGAGGGC | 0.987 ± 0.021 |
| CATTGCATTT | 1.3 ± 0.4 |
| CATTGCTATT | 1.02 ± 0.017 |
| CATTGGACGT | 1.029 ± 0.0063 |
| CATTGGGTG | 1.05 ± 0.018 |
| CATTGGGTGT | 1.03 ± 0.0098 |
| CATTGTGACT | 1 ± 0.016 |

| Sequence | switch fluorescence ratio |
| --- | --- |
| CATTGTGCCT | 1.04 ± 0.018 |
| CATTGTGTGA | 0.994 ± 0.021 |
| CATTGTGTTT | 0.9707 ± 0.0029 |
| CATTTAAGTC | 0.995 ± 0.023 |
| CATTTACGCT | 1.03 ± 0.014 |
| CATTTAGTAT | 1.01 ± 0.013 |
| CATTTATTCT | 0.9615 ± 0.0021 |
| CATTTATTGT | 0.992 ± 0.018 |
| CATTTCAAGG | 1 ± 0.043 |
| CATTTGCTCT | 1 ± 0.013 |
| CATTTGGATG | 1.02 ± 0.013 |
| CATTTGGCGT | 0.972 ± 0.029 |
| CATTTGGGGG | 0.977 ± 0.025 |
| CATTTGGTCG | 0.955 ± 0.13 |
| CATTTTAATA | 1.01 ± 0.021 |
| CATTTTGTAG | 1.039 ± 0.0043 |
| CATTTTTGAA | 1.006 ± 0.0066 |
| CATTTTTGTG | 0.9534 ± 0.0061 |
| CATTTTTTAG | 1.01 ± 0.016 |
| CCAAAATTGA | 1 ± 0.014 |
| CCAAACTTAG | 1.02 ± 0.027 |
| CCAAAGAGGG | 0.993 ± 0.02 |
| CCAAAGCTAG | 2.1 ± 0.028 |
| CCAAATCAGA | 0.986 ± 0.021 |
| CCAACGGTCT | 1.04 ± 0.0012 |

| Sequence | switch fluorescence ratio |
| --- | --- |
| CCAAGAGGAC | 1 ± 0.027 |
| CCAAGATGTG | 0.997 ± 0.01 |
| CCAAGCGGTA | 1.3 ± 0.026 |
| CCAAGGGATG | 0.967 ± 0.018 |
| CCAAGGGGAG | 0.988 ± 0.037 |
| CCAAGGGGTT | 1.01 ± 0.03 |
| CCAATAGAGT | 0.997 ± 0.046 |
| CCAATATAGC | 1.21 ± 0.016 |
| CCAATATTCG | 1.09 ± 0.056 |
| CCAATGAGGT | 0.9962 ± 0.0084 |
| CCAATGATAA | 1.014 ± 0.0034 |
| CCAATTGCGC | 1.03 ± 0.031 |
| CCAATTTGCT | 1.02 ± 0.056 |
| CCACCTTAAG | 1.04 ± 0.033 |
| CCACGAAGAT | 1.061 ± 0.0037 |
| CCACGCCAGG | 2.79 ± 0.084 |
| CCACGCCCGG | 1.15 ± 0.099 |
| CCACGCCTGT | 1.09 ± 0.022 |
| CCACTATTCT | 1.001 ± 0.0062 |
| CCACTTTCCT | 1.2 ± 0.021 |
| CCAGAAGGGT | 0.974 ± 0.02 |
| CCAGACACAC | 1.45 ± 0.018 |
| CCAGACAGC | 1.01 ± 0.052 |
| CCAGACCAGT | 1.011 ± 0.0024 |
| CCAGAGGAAT | 1.043 ± 0.0079 |
